From patent publication US20060263802A1 (CRUCELL HOLLAND B V, published 2006)

Tests used:
Assay in all cases: PEPSCAN ELISA, looped peptide, antibody 10 µg/ml
[1] = target: looped/cyclic peptide … (rabies virus strain ERA)
[2] = target: looped/cyclic peptide … (rabies virus strain ERA); remark: listed apart in the source
[3] = target: looped/cyclic peptide … (rabies virus strain ERA); remark: listed apart in the source
[4] = target: looped/cyclic peptide … (rabies virus strain ERA); remark: listed apart in the source
[5] = target: looped/cyclic peptide … (rabies virus strain ERA); remark: listed apart in the source
[6] = target: looped/cyclic peptide … (rabies virus strain ERA); remark: listed apart in the source
[7] = target: looped/cyclic peptide … (rabies virus strain ERA); remark: listed apart in the source
[8] = target: looped/cyclic peptide … (rabies virus strain ERA); remark: listed apart in the source
[9] = target: looped/cyclic peptide … (rabies virus strain ERA); remark: listed apart in the source
[10] = target: looped/cyclic peptide … (rabies virus strain ERA); remark: listed apart in the source
[11] = target: looped/cyclic peptide … (rabies virus strain ERA); remark: listed apart in the source
[12] = target: looped/cyclic peptide … (rabies virus strain ERA); remark: listed apart in the source
[13] = target: looped/cyclic peptide … (rabies virus strain ERA); remark: listed apart in the source
[14] = target: looped/cyclic peptide … (rabies virus strain ERA); remark: listed apart in the source
[15] = target: looped/cyclic peptide … (rabies virus strain ERA); remark: listed apart in the source
[16] = target: looped/cyclic peptide … (rabies virus strain ERA); remark: listed apart in the source
[17] = target: looped/cyclic peptide … (rabies virus strain ERA); remark: listed apart in the source
[18] = target: looped/cyclic peptide … (rabies virus strain ERA); remark: listed apart in the source
[19] = target: looped/cyclic peptide … (rabies virus strain ERA); remark: listed apart in the source
[20] = target: looped/cyclic peptide … (rabies virus strain ERA); remark: listed apart in the source
[21] = target: looped/cyclic peptide … (rabies virus strain ERA); remark: listed apart in the source
[22] = target: looped/cyclic peptide … (rabies virus strain ERA); remark: listed apart in the source
[23] = target: looped/cyclic peptide … (rabies virus strain ERA); remark: listed apart in the source
[24] = target: looped/cyclic peptide … (rabies virus strain ERA); remark: listed apart in the source
[25] = target: looped/cyclic peptide … (rabies virus strain ERA); remark: listed apart in the source
[26] = target: looped/cyclic peptide … (rabies virus strain ERA); remark: listed apart in the source
[27] = target: looped/cyclic peptide … (rabies virus strain ERA); remark: listed apart in the source
[28] = target: looped/cyclic peptide … (rabies virus strain ERA); remark: listed apart in the source
[29] = target: looped/cyclic peptide … (rabies virus strain ERA); remark: listed apart in the source
[30] = target: looped/cyclic peptide … (rabies virus strain ERA); remark: listed apart in the source
[31] = target: looped/cyclic peptide … (rabies virus strain ERA); remark: listed apart in the source
[32] = target: looped/cyclic peptide … (rabies virus strain ERA); remark: listed apart in the source
[33] = target: looped/cyclic peptide … (rabies virus strain ERA); remark: listed apart in the source
[34] = target: looped/cyclic peptide … (rabies virus strain ERA); remark: listed apart in the source
[35] = target: looped/cyclic peptide … (rabies virus strain ERA); remark: listed apart in the source
[36] = target: looped/cyclic peptide … (rabies virus strain ERA); remark: listed apart in the source
[37] = target: looped/cyclic peptide … (rabies virus strain ERA); remark: listed apart in the source
[38] = target: looped/cyclic peptide … (rabies virus strain ERA); remark: listed apart in the source
[39] = target: looped/cyclic peptide … (rabies virus strain ERA); remark: listed apart in the source
[40] = target: looped/cyclic peptide […] (rabies virus strain ERA)
[41] = target: looped/cyclic peptide … (rabies virus strain ERA); remark: listed apart in the source
[42] = target: looped/cyclic peptide … (rabies virus strain ERA); remark: listed apart in the source
[43] = target: looped/cyclic peptide … (rabies virus strain ERA); remark: listed apart in the source
[44] = target: looped/cyclic peptide … (rabies virus strain ERA); remark: listed apart in the source
[45] = target: looped/cyclic peptide … (rabies virus strain ERA); remark: listed apart in the source
[46] = target: looped/cyclic peptide … (rabies virus strain ERA); remark: listed apart in the source
[47] = target: looped/cyclic peptide … (rabies virus strain ERA); remark: listed apart in the source
[48] = target: looped/cyclic peptide … (rabies virus strain ERA); remark: listed apart in the source
[49] = target: looped/cyclic peptide … (rabies virus strain ERA); remark: listed apart in the source
[50] = target: looped/cyclic peptide … (rabies virus strain ERA); remark: listed apart in the source
[51] = target: looped/cyclic peptide … (rabies virus strain ERA); remark: listed apart in the source
[52] = target: looped/cyclic peptide … (rabies virus strain ERA); remark: listed apart in the source
[53] = target: looped/cyclic peptide … (rabies virus strain ERA); remark: listed apart in the source
[54] = target: looped/cyclic peptide … (rabies virus strain ERA); remark: listed apart in the source
[55] = target: looped/cyclic peptide … (rabies virus strain ERA); remark: listed apart in the source
[56] = target: looped/cyclic peptide … (rabies virus strain ERA); remark: listed apart in the source
[57] = target: looped/cyclic peptide … (rabies virus strain ERA); remark: listed apart in the source
[58] = target: looped/cyclic peptide … (rabies virus strain ERA); remark: listed apart in the source
[59] = target: looped/cyclic peptide … (rabies virus strain ERA); remark: listed apart in the source
[60] = target: looped/cyclic peptide … (rabies virus strain ERA); remark: listed apart in the source

B1: human monoclonal antibody CRJA (antibody, V domains shown)
VH: EVQLLESGGGLVQPGGSLRLSCAASGFTFSNYAMSWVRQAPGKGLEWVSAISASGHSTYLADSVKGRFTISRDNSKNTLYLQMNSLRAEDTAVYYCAKDREVTMIVVLNGGFDYWGQGTRVTVSS
VL: EIVLTQSPATLSLSPGERATLACRASQTASRYLAWYQQKPGQAPRLLIYDTSNRATGIPARFSGSGSGTDFTLSISSLEPEDFAVYYCQQRFNWPWTFGQGTKVEFK
B1 showed an OD value [1] of 78 OD, an OD value [2] of 117 OD and an OD value [3] of 105 OD. The OD value [4] was 79 OD, the OD value [5] was 96 OD and the OD value [6] was 58 OD. It also gave an OD value [7] of 92 OD, an OD value [8] of 96 OD and an OD value [9] of 125 OD. It also gave an OD value [10] of 90 OD, an OD value [11] of 88 OD and an OD value [12] of 78 OD. The OD value [13] was 90 OD, the OD value [14] was 98 OD and the OD value [15] was 84 OD. The OD value [16] was 83 OD, the OD value [17] was 71 OD and the OD value [18] was 96 OD. For the same binder, the OD value [19] was 41 OD, the OD value [20] was 71 OD and the OD value [21] was 86 OD. For the same binder, the OD value [22] was 104 OD, the OD value [23] was 92 OD and the OD value [24] was 71 OD. The OD value [25] was 71 OD, the OD value [26] was 93 OD and the OD value [27] was 93 OD. For the same binder, the OD value [28] was 46 OD, the OD value [29] was 89 OD and the OD value [30] was 88 OD. It also gave an OD value [31] of 79 OD, an OD value [32] of 89 OD and an OD value [33] of 110 OD. It also gave an OD value [34] of 62 OD, an OD value [35] of 96 OD and an OD value [36] of 87 OD. It also gave an OD value [37] of 108 OD, an OD value [38] of 83 OD and an OD value [39] of 110 OD. The OD value [40] was 186 OD, the OD value [41] was 86 OD and the OD value [42] was 68 OD. It also gave an OD value [43] of 72 OD, an OD value [44] of 38 OD and an OD value [45] of 93 OD. It also gave an OD value [46] of 71 OD, an OD value [47] of 71 OD and an OD value [48] of 45 OD. For the same binder, the OD value [49] was 100 OD, the OD value [50] was 92 OD and the OD value [51] was 57 OD. For the same binder, the OD value [52] was 151 OD, the OD value [53] was 90 OD and the OD value [54] was 96 OD. For the same binder, the OD value [55] was 43 OD, the OD value [56] was 62 OD and the OD value [57] was 86 OD. The OD value [58] was 100 OD, the OD value [59] was 123 OD and the OD value [60] was 84 OD.
